In test [1] the target is Mj-AMP1 (Mirabilis jalapa--Antimicrobial Protein 1) (Mirabilis jalapa).
Test [2] deals with Mj-AMP2 (Mirabilis jalapa--Antimicrobial Protein 2) (Mirabilis jalapa).

Here are results for 4 substances from US5689048.

In the case of Trypsin (enzyme), the Relative antifungal activity (shown as % of control activity) after Trypsin digestion (% of control activity) in test [1] was 75; in test [2] it was 100.
For “Proteinase K (from UniProt P06873) (enzyme)”, the Relative antifungal activity (shown as % of control activity) after Proteinase K digestion (% of control activity) in test [1] and in test [2] was 100 each time.
As to Pronase E (enzyme), the Relative antifungal activity (shown as % of control activity) after Pronase E digestion (% of control activity) came to 50 in test [1] and 25 in test [2].
With Chymotrypsin (enzyme), the Relative antifungal activity (shown as % of control activity) after Chymotrypsin digestion (% of control activity) came out at 12 in test [1] and 50 in test [2].
